Here are results for five molecules from publication PMC7710722, “A nanobody suite for yeast scaffold nucleoporins provides details of the nuclear pore complex structure” (Nature Communications, 2020).

Conditions in all cases: both partners purified
The target of assay [1] is T1, fusion construct of Nup145C-Sec13 (Saccharomyces cerevisiae S288c, UniProt P49687;Q04491).
T1 construct: Nup145C, the C-terminal product of Nup145, S. cerevisiae; named among the 'full-length nups'; Sec13, S. cerevisiae; source: E. coli
The experiment in a line: SEC; nup and nanobody incubated 30 min on ice, then Superdex S75 or S200 10/300 in 150 mM NaCl, 10 mM Tris/HCl pH 7.5, 1 mM DTT, 0.1 mM EDTA. On the technique in general: SEC sorts molecules by how far they enter the pores of the column.

Assay [2] has as its target T2, Sec13 fused to the Nup145C insertion blade (Saccharomyces cerevisiae S288c, UniProt Q04491).
T2 construct: Sec13, S. cerevisiae; Nup145C insertion blade, S. cerevisiae, residues 320-411 as printed; also called Sec13-Nup145C_(320–411); Sec13-Nup145C_(blade); source: E. coli LOBSTR-RIL(DE3), purified (Ni Sepharose, 3C protease, Superdex S75)
The description is as above.

For assay [3], the target named is T3, Nup85_(1–564) (S. cerevisiae, UniProt P46673 1-564).
T3 construct: Nup85, S. cerevisiae, residues 1-564 (crown and trunk modules); The Nup85 chain of m31, written alone for the pairs that touch in the structure 6X08; also called Nup85_(trunk-crown); Nup85_(crown-trunk); source: E. coli LOBSTR-RIL(DE3), purified together with Seh1
T3 sequence (looked up): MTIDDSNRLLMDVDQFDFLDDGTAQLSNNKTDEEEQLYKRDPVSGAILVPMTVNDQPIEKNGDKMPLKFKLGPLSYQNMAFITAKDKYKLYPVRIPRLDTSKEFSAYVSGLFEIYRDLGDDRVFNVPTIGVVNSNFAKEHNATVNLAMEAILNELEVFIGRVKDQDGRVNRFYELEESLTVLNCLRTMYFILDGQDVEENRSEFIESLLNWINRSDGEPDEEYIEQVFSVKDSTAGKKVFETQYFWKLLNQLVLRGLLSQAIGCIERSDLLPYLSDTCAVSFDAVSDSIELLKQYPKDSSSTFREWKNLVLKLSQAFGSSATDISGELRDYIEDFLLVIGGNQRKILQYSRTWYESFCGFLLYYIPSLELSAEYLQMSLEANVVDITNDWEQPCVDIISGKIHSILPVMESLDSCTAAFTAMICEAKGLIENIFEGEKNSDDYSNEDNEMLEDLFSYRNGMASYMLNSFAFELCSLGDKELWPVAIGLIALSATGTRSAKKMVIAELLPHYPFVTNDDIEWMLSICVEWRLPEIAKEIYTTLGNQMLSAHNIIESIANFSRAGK
The experiment in a line: crystal structure; nup-nanobody complexes crystallised at 18 °C; solved by molecular replacement.

Assay [4] deals with T4, Sec13 (analyte of the BLI of Table 1) (Saccharomyces cerevisiae S288c, UniProt Q04491).
T4 construct: Sec13, S. cerevisiae; The analyte may have been Sec13 fused to the Nup145C insertion blade; source: E. coli, recombinant
The experiment in a line: BLI; biotinylated, C-terminally Avi-tagged nanobody immobilised on streptavidin tips, nup as analyte in twofold dilution series; 10 mM Tris/HCl pH 7.5, 150 mM NaCl, 1 mM DTT, 0.1 mM EDTA, 0.05% Tween-20, 0.1% BSA; global 1:1 kinetic fit. In general terms: In BLI a coated tip is dipped into the sample, and binding shifts an interference pattern.

Assay [5] concerns the target T5, Nup120-Nup85-Seh1-Nup145C-Sec13 (Saccharomyces cerevisiae S288c, UniProt P35729;P46673;P53011;P49687;Q04491).
T5 construct: Nup120, S. cerevisiae; Nup85, S. cerevisiae; Seh1, S. cerevisiae; Nup145C, the C-terminal product of Nup145, S. cerevisiae, residues 34-712; Sec13, S. cerevisiae; Nup145C and Sec13 may stand on one chain as in the fusion construct; also called assembled Y complex hub; source: E. coli, purified; assembled from Nup85-Seh1 and Nup120-Nup145C_(34–712)-Sec13 on Superdex S200; copies: + + + +
Nature of the assay: SEC; nup and nanobody incubated 30 min on ice, then Superdex S75 or S200 10/300 in 150 mM NaCl, 10 mM Tris/HCl pH 7.5, 1 mM DTT, 0.1 mM EDTA.

Assay [6] has as its target T6, Nic96_(186–839) (Saccharomyces cerevisiae S288c, UniProt P34077).
T6 construct: The only Nic96 construct in the methods; source: E. coli LOBSTR-RIL(DE3), purified (Ni Sepharose, 3C protease, Superdex S200)
Nature of the assay: BLI; biotinylated, C-terminally Avi-tagged nanobody immobilised on streptavidin tips, nup as analyte in twofold dilution series; 10 mM Tris/HCl pH 7.5, 150 mM NaCl, 1 mM DTT, 0.1 mM EDTA, 0.05% Tween-20, 0.1% BSA; global 1:1 kinetic fit.

T4 sequence (Q04491 whole entry, the tested form may be a part): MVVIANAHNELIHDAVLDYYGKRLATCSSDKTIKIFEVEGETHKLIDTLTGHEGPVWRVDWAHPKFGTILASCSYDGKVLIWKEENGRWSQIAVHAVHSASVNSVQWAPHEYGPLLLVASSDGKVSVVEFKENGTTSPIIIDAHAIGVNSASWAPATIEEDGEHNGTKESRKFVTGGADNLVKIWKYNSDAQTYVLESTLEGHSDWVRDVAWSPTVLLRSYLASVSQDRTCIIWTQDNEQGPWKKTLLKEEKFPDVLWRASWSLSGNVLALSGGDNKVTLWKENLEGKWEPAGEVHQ

B1: VHH-SAN6 (VHH)
VHH: QLQLVETGGGSVQAGGSLSLSCIVSGRTSTYYAMGWFRQAPGKEREFVAAINWSGSSTVYEESVKGRFTISRDNVQNTVYLQMNSLKPEDTADYYCAAAATIFIPRPDEYPYWGQGTQVTVSS
notes: source: E. coli LOBSTR-RIL(DE3), purified (Ni Sepharose, SEN-p protease, Superdex S75); not shown: 14xHis, N-terminal, cleaved; bdSUMO, N-terminal, cleaved
Regarding B1, the binding result is recorded as “binds” in assay [1] and “no binding” in assay [2].

B2: Seh1 (natural protein, S. cerevisiae)
chain: MQPFDSGHDDLVHDVVYDFYGRHVATCSSDQHIKVFKLDKDTSNWELSDSWRAHDSSIVAIDWASPEYGRIIASASYDKTVKLWEEDPDQEECSGRRWNKLCTLNDSKGSLYSVKFAPAHLGLKLACLGNDGILRLYDALEPSDLRSWTLTSEMKVLSIPPANHLQSDFCLSWCPSRFSPEKLAVSALEQAIIYQRGKDGKLHVAAKLPGHKSLIRSISWAPSIGRWYQLIATGCKDGRIRIFKITEKLSPLASEESLTNSNMFDNSADVDMDAQGRSDSNTEEKAELQSNLQVELLSEHDDHNGEVWSVSWNLTGTILSSAGDDGKVRLWKATYSNEFKCMSVITAQQ
notes: Seh1, S. cerevisiae; Used alone in SEC with VHH-SAN1; also written alone for its contact with Nup85(1-564) in the structure 6X08; also called Seh1 alone; source: E. coli
Regarding B2, the binding result in assay [3] is on record as “binds”.

B3: VHH-SAN7 with biotinylated C-terminal Avi-tag (VHH)
VHH: QVQLVETGGGLVQPGGSLRLSCVASGSIFGINAMGWYRQAPGNQRELVASIRSDFGTTKYADSVKGRFTISRGNARTTVYLQMNSLKPEDTAVYYCRIWSADGNYWGQGTQVTVSS
notes: Separate Avi-tagged construct used for BLI; source: E. coli LOBSTR-RIL(DE3), biotin added to the culture, purified (Ni Sepharose, SEN-p protease, Superdex S75); not shown: 14xHis, N-terminal, cleaved; bdSUMO, N-terminal, cleaved; Avi-tag, C-terminal, kept
Take B3: in assay [4], the affinity, expressed as Kd, was 0.51 nM; the dissociation rate constant (koff) is 0.00065 s⁻¹; the on-rate (kon) worked out at 1.3e+06 M⁻¹ s⁻¹.

B4: VHH-SAN7 (VHH)
VHH: B3 VHH
notes: as for B1
For the molecule B4, the binding result in assay [1] and in assay [5] was “binds” in each case.

B5: VHH-SAN12 with biotinylated C-terminal Avi-tag (VHH)
VHH: QVQLVETGGGLVQAGGSLRLSCATSGFNFRLRTMGWYRQAPGKERELVASITSGGSTDYADSVKGRFTISRDNAKNTISLEMNSLKPDDTAVYYCNIWAPTTAAITNWGQGTQVTVSS
notes: also in PDB 6X07; Separate Avi-tagged construct used for BLI; source: E. coli LOBSTR-RIL(DE3), biotin added to the culture, purified (Ni Sepharose, SEN-p protease, Superdex S75); not shown: 14xHis, N-terminal, cleaved; bdSUMO, N-terminal, cleaved; Avi-tag, C-terminal, kept
Turning to B5, in assay [6], the affinity, expressed as Kd, was 1.3 nM; the off-rate constant (koff) was 0.0024 s⁻¹; the kon is 1.8e+06 M⁻¹ s⁻¹.

One may read the Kd as the free concentration of one partner at which half of the binding sites on the other are occupied at equilibrium, for simple one-to-one binding. Higher therefore signals a looser complex. By koff is commonly meant the first-order rate constant of dissociation. A high value points to a short-lived complex. As a reminder, the kon is the rate constant with which the complex forms. The low end stands for slower complex formation, the high end for faster complex formation.
